We go through 130 substances from the supplement of paper PMC12042874.

A short description of this data set: amyloid nucleation score (Sup35N fusion, yeast selection) (log enrichment); library NNK3; higher = more nucleation; inactive = no reads after selection. The method in brief:
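Random libraries were run with three technical output replicates. In each, psi-negative yeast expressing Sup35N fused to peptides of 20 random codons were induced 24 hours with 100 μM copper sulfate and grown 7 days at 30°C on medium lacking adenine and uracil, and input and output plasmid inserts were Illumina-sequenced. The nucleation score is the DiMSum log enrichment of output over input reads, centred on the mode score of non-aggregating sequences, and sequences under 100 input reads were excluded.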

± gives the uncertainty stated by the source.

The substance INKSWGVFP had an amyloid nucleation score of 0.687 ± 0.18.
As to IDLRVTRNIFQSATLLMFFW, the amyloid nucleation score result is “inactive”.
Next, VTRETADDATVSQFWLNPSE: “inactive”.
GRNCFGGARTAVGIRNTSPL: the amyloid nucleation score result is “inactive”.
Next, SYYLITDS: “inactive”; CDIRAAGSKLTDYPLSTRAS: “inactive”.
The entry for VRSCAKLPSVHKYLAQARRL is “inactive”.
The entry for GTGGSVRPHCEFSLRSSYMV is “inactive”; for MCYLSSSDAGDVIPAWC it is “inactive”; for KWAWVGISCPRYRSRLGYFS it is “inactive”.
Turning to GGYVRSNCGRGVVPMVTRMA, the amyloid nucleation score entry was “inactive”.
For the substance SLGVEVKCNTIP, the amyloid nucleation score result was “inactive”.
The entry for TMASYWPMERRRTASELPGV is “inactive”; for MKLSVLNVWNSRWGLQTA it is “inactive”.
RFGDVHDCVVVSNGNLRNES: the amyloid nucleation score entry is “inactive”.
The entry for AQSGVPRGAPGLAFDSVPHK is “inactive”; for QCRSLITRWGDSVYCLWTK it is “inactive”; for IDWLKRVVEVTSVEGAYCWW it is “inactive”.
Consider FWAYERVGSRSAFGWLGREA, for which the amyloid nucleation score came out at 0.705 ± 0.21.
Take RARNTKLCNLSVCMTMGPEA: the amyloid nucleation score result was “inactive”.
Next, SAIPVWGKMRGFYLFYETHC: “inactive”; VTAMSMNVAQCPAYPR: “inactive”; ASTTVGCVYYTLVLIG: 1.98 ± 0.09.
Next, DCDRILLV: “inactive”.
Next, NRVFPANLSSLSSCSTFTLW: “inactive”.
Turning to YFFTHDFHVVLNFANCIWYL, the amyloid nucleation score was determined as 2.99 ± 0.069.
Regarding LFKGGDSICYSHWSVRSSRK, the amyloid nucleation score came out at 1.09 ± 0.12.
Regarding CFYMTSSDYQEGNG, the amyloid nucleation score entry was “inactive”.
On to FVGHDTELNPHGRYGCLD, for which the amyloid nucleation score entry was “inactive”.
In the case of CNAYLAYARYIYTHGWPRSL, the amyloid nucleation score entry was “inactive”.
Next, RLLHSGRS: “inactive”; YAYVQRVYLACSINLMCLWY: “inactive”; KCSFTVNYRRRYSLYC: “inactive”.
The figure for LRFRTDFSSASNK is 1.18 ± 0.081; for LGNSAKVVLRWVEGVGLGVA it is “inactive”.
Regarding FAVDFLCHVS, the amyloid nucleation score entry is “inactive”.
Next, VMSLTR: “inactive”; VNFYADRASVHVHSVFHTQD: “inactive”.
Take FRYVHIHLRYQPGF: the amyloid nucleation score result is “inactive”.
In turn, QPPHKARGACYIRVFYRCTG displayed an amyloid nucleation score of 0.226 ± 0.68.
The entry for LFLRTEKIRFRSTRLVTLSC is “inactive”.
The entry for SKCSVGVLTRFR is “inactive”; for HMIGRCLVGIESYRW it is “inactive”.
Next, NAYVEGRSWVLVIENKDFAV: “inactive”; KARWYFIVLNVVTHSWDSKV: “inactive”.
Consider WRFRPVVYQRRPY, for which the amyloid nucleation score result was “inactive”.
Turning to CVLWYCCYTQLSMQKCNSRM, the amyloid nucleation score result was “inactive”.
The entry for RTNQLREPRANRWEGLAVLK is “inactive”; for PMERGMCLMLGSLVG it is 0.942 ± 0.093.
Take SAVRGRCVLYGNRPLIHVRK: the amyloid nucleation score entry is “inactive”.
Next, LRPKYTFYCRLD: 0.137 ± 0.28; VLGILVDFDLIKV: “inactive”; QLRACPWYSEVFIEI: “inactive”.
MTAMSFKGYAVIGGVIDRCR: the amyloid nucleation score result is “inactive”.
The entry for MTPMRAAMTLICHMPARRFS is “inactive”; for REITSWLDIDFL it is “inactive”; for NYPSYSMHNDIFYAFNFSIS it is 2.17 ± 0.084.
RERVATFQQPTRHGGGSLAS: the amyloid nucleation score entry was “inactive”.
In the case of KCKFNWVCEVVR, the amyloid nucleation score entry was “inactive”.
Take INLNYDLKFGYVYHMLFT: the amyloid nucleation score entry is “inactive”.
Consider GGLSS, for which the amyloid nucleation score was -0.809 ± 0.71.
The entry for GSFITSNA is “inactive”; for HDIDGCIVRKSLYNGRGPLL it is “inactive”.
Turning to QSYDL, the amyloid nucleation score entry was “inactive”.
On to PVVLLSWELMILLWVNSFAL, for which the amyloid nucleation score result was “inactive”.
The entry for CELVAQFPKFFAFYIFYDDT is “inactive”; for TSGGQRAAVWIYFTNEVMKY it is 0.207 ± 0.34; for RNGMISQAYSVP it is “inactive”.
As to GSLGAMKNQTTASQGAEGAL, the amyloid nucleation score entry was “inactive”.
Next, TPSRLPQAACWQ: “inactive”; ANLIYPRLEFCISMCTQMAE: “inactive”; CPRDNVSIVKWWLAYRDSHA: “inactive”.
Substance TMTIDESTWVVSANMSYRMK had an amyloid nucleation score of 1.37 ± 0.1.
On to LFAAYCFVYDIQFTRVPGAW, for which the amyloid nucleation score entry is “inactive”.
In turn, WKNLSYRGFHYWTALWHMVR yielded an amyloid nucleation score of -0.12 ± 1.
The entry for YYLVSHWWFGQCFDHVVS is “inactive”; for MSLVFRMSPHIQLVGWVHGR it is “inactive”; for SVIRVMSFG it is “inactive”.
For the substance VYKDHAIVLCWVVK, the amyloid nucleation score was -0.437 ± 0.56.
The entry for TLFSSCGLVHLLNCMRWPPG is “inactive”; for HQFFVVNSRDWLGHSSKFRF it is 0.814 ± 0.12; for KFGSLVKTYFRDMFRSILCW it is “inactive”.
Next, ANKWESGSNALLDISVLMFW: “inactive”; SVYVNAYEHNKGGFTRNIHI: “inactive”; CLLPVSVTLTASFLCQHVRY: 0.004 ± 0.75.
Next, WIGDIIILWMRHSDLCILNC: “inactive”; TWWCLN: “inactive”.
As for NLPNGMFKIHVDG, the amyloid nucleation score entry is “inactive”.
Next, SYFVLVWRETDFKHCLKGNF: “inactive”; GIYVVLNCISIFRLWLLSER: “inactive”; CFLGVSNMHIGWFGVR: 0.838 ± 0.12.
Next, SPSEMIAFWFNSTFVTSASG: -0.46 ± 1.7; MACRSNGLVGPEHTYVPT: “inactive”.
In the case of ASATARHTPNIY, the amyloid nucleation score entry is “inactive”.
The entry for TQHTTYTPLPHTELRLPYPQ is “inactive”; for LSPCGL it is “inactive”; for TNRMDKYCCV it is “inactive”.
Next, VNITLLRCEGSGMFGRSSKL: 1.13 ± 0.11; LYSGVIAHCIVIPIELFSVS: “inactive”.
As to LWNFYSDCNGVPQDESLVEG, the amyloid nucleation score entry was “inactive”.
Turning to RNLSKIRMPMVVNNTEY, the amyloid nucleation score result was “inactive”.
Next, CYFRVAHVLDSRILSRPGML: “inactive”; SWNRYTLRLSPSGFLVKVSL: “inactive”; SSARRKNLRYEGVLRTEARV: “inactive”.
Next, VINRSLCPERFGKGAL: “inactive”; CQIEILLPLDVLY: 1.06 ± 0.09.
As to NWEFDSNAILDSMLVMNRLT, the amyloid nucleation score entry was “inactive”.
For the substance DLKTWSMLSFFGMYATYLIK, the amyloid nucleation score result is “inactive”.
Next, RWFRTVGKFFGHIFS: 0.039 ± 0.45; RCSVVTSFQGICMACKYAGG: 1.26 ± 0.1.
Take RLLNVLKRYLMVSLQKAGSD: the amyloid nucleation score result was “inactive”.
In the case of YYLSFVKKCNDSEVIWTKSV, the amyloid nucleation score entry is “inactive”.
The entry for LLVGEIGYLEHTMHNCEVEG is “inactive”; for MKLSMHVCAGAKLSGEGFRF it is “inactive”.
YSHWMVRAA came in with an amyloid nucleation score of -0.145 ± 0.81.
VVAIWLLGAINMLITTIYSS: the amyloid nucleation score result is “inactive”.
For the substance LMVVWMLYGNNTCYDALMLC, the amyloid nucleation score result was “inactive”.
Next, PLRVRNQYRRLMISANQPDW: “inactive”; ECLMDGSTAFSMMFFYNYML: “inactive”; REWIGLSTYDSA: “inactive”.
As to CAESFHIAASG, the amyloid nucleation score result was “inactive”.
Next, MVIYSLHRTLIIICGRANLT: “inactive”; INYCALARFLMNECLCPICT: “inactive”.
The entry for NRVED is “inactive”; for RWWVMLLLVRWKRHQDTAYV it is “inactive”; for SYNSVRW it is “inactive”.
Consider MSSHFSSKAFGFHYGF, for which the amyloid nucleation score entry is “inactive”.
Next, DFYRSEQGDWSNLHSC: “inactive”; TVDVIRYISPDLDKTSYEWK: “inactive”.
The entry for YMSSYRKEDCGQWLDEWPMA is “inactive”.
